Test results published in doi:10.1101/2022.11.10.516034 (bioRxiv, 2022).
Like-named read-outs stand apart in the source and are kept apart here.

B1: full-length (FL) human Twinkle (aa 43-684) (enzyme, UniProt Q96RR1 43-684, looked up)
chain: ETLQALDMPVLPVTATEIRQYLRGHGIPFQDGHSCLRALSPFAESSQLKGQTGVTTSFSLFIDKTTGHFLCMTSLAEGSWEDFQASVEGRGDGAREGFLLSKAPEFEDSEEVRRIWNRAIPLWELPDQEEVQLADTMFGLTKVTDDTLKRFSVRYLRPARSLVFPWFSPGGSGLRGLKLLEAKCQGDGVSYEETTIPRPSAYHNLFGLPLISRRDAEVVLTSRELDSLALNQSTGLPTLTLPRGTTCLPPALLPYLEQFRRIVFWLGDDLRSWEAAKLFARKLNPKRCFLVRPGDQQPRPLEALNGGFNLSRILRTALPAWHKSIVSFRQLREEVLGELSNVEQAAGLRWSRFPDLNRILKGHRKGELTVFTGPTGSGKTTFISEYALDLCSQGVNTLWGSFEISNVRLARVMLTQFAEGRLEDQLDKYDHWADRFEDLPLYFMTFHGQQSIRTVIDTMQHAVYVYDICHVIIDNLQFMMGHEQLSTDRIAAQDYIIGVFRKFATDNNCHVTLVIHPRKEDDDKELQTASIFGSAKASQEADNVLILQDRKLVTGPGKRYLQVSKNRFDGDVGVFPLEFNKNSLTFSIPPKNKARLKKIKDDTGPVAKKPSSGKKGATTQNSEICSGQAPTPDQPDTSKRSK
B2: Twinkle C-terminal domain with linker (CTD, amino acids 360-684) (domain or fragment, human, UniProt Q96RR1 360-684, looked up)
chain: LPAWHKSIVSFRQLREEVLGELSNVEQAAGLRWSRFPDLNRILKGHRKGELTVFTGPTGSGKTTFISEYALDLCSQGVNTLWGSFEISNVRLARVMLTQFAEGRLEDQLDKYDHWADRFEDLPLYFMTFHGQQSIRTVIDTMQHAVYVYDICHVIIDNLQFMMGHEQLSTDRIAAQDYIIGVFRKFATDNNCHVTLVIHPRKEDDDKELQTASIFGSAKASQEADNVLILQDRKLVTGPGKRYLQVSKNRFDGDVGVFPLEFNKNSLTFSIPPKNKARLKKIKDDTGPVAKKPSSGKKGATTQNSEICSGQAPTPDQPDTSKRSK

Legend:
[1] = molecular target: the molecule itself; assay: SEC
[2] = molecular target: the molecule itself; assay: SEC; remark: listed apart in the source

| Protein | stoichiometry N [1] | stoichiometry N [2] [subunit] |
| --- | --- | --- |
| B1 | ~7 | – |
| B2 | – | ~12 |
